The results in this text go back to patent publication US20210198366A1.

Where a chain is given by its changes, count along the chain named.

T1: cynomolgus monkey B7-H7 (soluble analyte in SPR) (cynomolgus monkey)
T1 sequence: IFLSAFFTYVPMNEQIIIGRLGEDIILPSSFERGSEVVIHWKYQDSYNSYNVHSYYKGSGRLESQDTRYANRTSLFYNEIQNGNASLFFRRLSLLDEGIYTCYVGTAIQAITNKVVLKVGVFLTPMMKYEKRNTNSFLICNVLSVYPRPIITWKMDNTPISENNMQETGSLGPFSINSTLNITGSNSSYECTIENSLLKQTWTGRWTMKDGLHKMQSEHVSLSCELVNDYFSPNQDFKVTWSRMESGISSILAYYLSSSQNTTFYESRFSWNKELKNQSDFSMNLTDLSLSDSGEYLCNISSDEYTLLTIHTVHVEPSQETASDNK

B1: anti-B7-H7 antibody 2D7 (antibody, V domains shown)
VH: EVQLQQSGPELVKPGASVKISCKTSGYTFTEYTMHWVKQSHGKSLEWIGGINPNNYGAPYNQKFKGKATLTVDKSSNTAYMELRSLTSEDSAIYYCASGGYYFDYWGQGTTLTVSS
VL: DIVMTQSHKFMSTSFGDRVSITCKASQDVGTAVAWYQQKLGQSPKLLISWAFTRHTGVPDRFTGSGSGTDYTLTISSLQAEDLALYYCQQHYDTPFTFGSGTKLEIK
B2: chimeric 2D7 antibody comprising the murine heavy chain and light chain variable regions of 2D7 and a human Fc region (antibody, V domains shown)
VH: B1 VH
VL: B1 VL
B3: humanized anti-B7-H7 antibody Hz2D7 (antibody, human IgG1, kappa, V domains shown)
VH: QVQLVQSGAEVKKPGASVKVSCKTSGYTFTEYTMHWVRQAPGQGLEWMGGINPNNYGAPYNQKFKGRVTMTVDTSISTAYMELSRLRSDDTAVYYCASGGYYFDYWGQGTLVTVSS
VL: DIQMTQSPSSLSASVGDRVTITCKASQDVGTAVAWYQQKPGKAPKLLIYWAFTRHTGVPSRFSGSGSGTDYTLTISSLQPEDFATYYCQQHYDTPFTFGQGTKVEIKR
B4: anti-B7-H7 antibody 2F10 (antibody, V domains shown)
VH: EIQLQQTGPELVKPGASLRISCKASGYSFTDYIIVWVKQNQGKNLDWIEKINPYYGTTTYNLRFEDKATLTVNKSSTTAYMQLNSLTSEDSAVYYCARWDYVSTLFAMDYWGQGTSITVSS
VL: DIVMTQSHKVMSTSVGDRVSIICKASQDVGTAVAWYQQKPGQSPKLLIYWASTRHTGVPDRFTGSGSGTDFILTITNVQSENLANYFCQQYKRYYTFGGGTKLEIK
B5: anti-B7-H7 antibody 5C9 (antibody, V domains shown)
VH: QVQLQQSGAELAKPGASVKMSCKASGYTFTSFWIHWIKQRPGQGLEWIGYIIPNTDYTEYNQKFKDKATFTADKSSSTAYMQLSSLTSEDSAVFYCARGLRGAYYFDYWGQGTTLTVSS
VL: DIVLTQSPASLAVSLGLRATISCRSSQSVSTSTNGYMHWYQQKPGQPPKLLIMYASNLESGVPARFSGSGSGTDFTLNIHPVDEEDTATYYCQHSWVLPYTFGGGTKLEIK
B6: anti-B7-H7 antibody 3H6 (antibody, V domains shown)
VH: B1 VH with Y56G, N77S, I93V, S98R
VL: B1 VL with F15V, G30S, L40S, S49Y, F52S, L78V, S100G
B7: anti-B7-H7 antibody 28F5 (antibody, V domains shown)
VH: QVQLKESGPGLVAPSQSLSITCTVSGFSLTGYGVNWVRQPPGKGLEWLGVIWGDGSTDYNSVLKSRLSISKDNSKSQVFLKMNSLQTDDTARYYCAREATEYLYWYFDVWGAGTTVTVSS
VL: DIVLTQSPASLAVSLGQRATISCRASESVEYYGSSLMQWYQQKPGQPPKLLIFAASNVESGVPPRFSGSGSGTDFNLNIHPVDEDDIAMYFCQQGRRVPWTFGGGTKLEIK
B8: anti-B7-H7 antibody 1D3 (antibody, V domains shown)
VH: EVQLQQSGPELEKPGASVKISCKASGYSFTGYNMNWVKESNGRSLEWIGNIDPYSGGSTYNQKFKGKATMTVDKSSSTAYMQLKSLTSEDSAVYYCARSVYDAPWLAHWGQGTLVTVSA
VL: DIQMTQSPASLSASVGETVTITCRASENIYIYLAWYQQKQGKSPQLLVYNAKTLAEGVPSRFSGSGSGTQFSLKINRLQPEDFGNYYCQHHYGTPPTFGGGTKLEIK
B9: anti-B7-H7 antibody 5B10 (antibody, V domains shown)
VH: B8 VH with E39Q, R43K, M70L, Y80S, M81L, A92S, V100F, W105Y, A107T, H108Y
VL: DIQMTQSPTSLSASVGETVTITCRASENIFIYLAWYQQKQGKSPQLLVFNAKTLAEGVPSRFSGSGSGTQFSLKINSLRPEDFGTYYCQHHYGTPPTFGGGTKLEV
B10: anti-B7-H7 antibody 16D5 (antibody, V domains shown)
VH: QVQLQQSAAELARPGASVKMSCKASGYTFTTYTMHWVKQRPGQGLEWIGYINPSRGYSDYSQKFQGKSTLTTDKSSNTAYIQLTSLTSEDSAVYFCARGGYDFDYWGQGTTLTVSS
VL: DIVMTQSHKFMSTSVGDRVSITCKASQDVGTAVAWYQQKPGQSPKLLLYWASTRHTGVPDRFTGSGSGTDYTLTISSVQAEDLALYHCQQHFITPYTFGGGTKLEIK
B11: anti-B7-H7 antibody 5F7 (antibody, V domains shown)
VH: QEQLQQPGTELVKPGASVKISCKASGYTFSSYSMHWVKLTPGQGLEWMGTIYPGNENTSYNQKFKGKATLTADKSSSTAYMQLSSLTSEDSAVYYCARGGYYFDYWGQGTTLTVSS
VL: B10 VL with M11L, G30S, L48I, P59S, Y71F, H87Y, I93D, T94I, T97W

The target of one assay is T1, cynomolgus monkey B7-H7 (soluble analyte in SPR) (cynomolgus monkey). Put plainly: SPR (Biacore). For orientation: SPR reads the build-up and loss of mass on a sensor chip optically.
As usually defined, the Kd is the constant that tells how readily two partners part at equilibrium. By koff is commonly meant the first-order rate constant of dissociation. In turn, B1 had a dissociation constant (Kd) of 0.65 nM and a koff of 0.00011 s⁻¹.

The molecule B2 displayed an equilibrium dissociation constant (Kd) of 0.14 nM and a koff of 3.5e-05 s⁻¹.

B3 registered a Kd of 0.4 nM and a koff of 7.6e-05 s⁻¹.

The next assay shares this target. Put plainly: SPR (Biacore), antibody captured by anti-Fc on CM5 chip, B7-H7 injected, 37 C.
In turn, B4 had a Kd of 8.6 nM. For the molecule B5, the Kd was 4.8 nM. As for B1, the Kd stood at 0.6 nM. For the molecule B6, the Kd worked out at 6.9 nM. In turn, B7 yielded a Kd of 4.5 nM.

With B8, the Kd was 3.2 nM.

In turn, B9 showed a Kd of 4.6 nM. On the same count and under the same terms, the result for B10 reads 6.9 nM; that for B11, 1.2 nM.
